Assay results: patent US20220370630A1, “TRANSMUCOSAL DELIVERY SYSTEM FOR PHARMACEUTICAL ACTIVE INGREDIENT TO SUBMUCOSAL TISSUE OF BLADDER” (SEIKAGAKU CORPORATION, priority 2019, published 2022)

Legend:
[1] = Release test: release ratio of API from the derivative in phosphate buffer solution pH 7.4 at 36° C., HPLC; assay type: physicochemical; conditions: phosphate buffer pH 7.4, 36° C.; for Release ratio of API: 5 mg/10 mL; for Release rate: slope of release ratio against time
Experimental: In Examples pertaining to a release test, a release ratio of a pharmaceutical active ingredient (API) from a chondroitin sulfate derivative and a hyaluronic acid derivative, each of which was not fluorescently labeled was evaluated as follows. […] The release ratio was calculated based on the ratio of peak areas of HPLC corresponding to the amount of API in the derivative and the amount of released API using a size-exclusion chromatography column (TSKgel α, manufactured by Tosoh Corporation). Release ratio (%)=peak area of released API/(peak area of API in each derivative+peak area of released API)×100 Also with respect to the hyaluronic acid derivatives of Comparative Examples 2 to 3, evaluation was performed in the same manner as for Examples.

[2] = Evaluation using rat 2: concentration of TA in the bladder after administration to the lumen of the bladder, LC/MS/MS; assay type: in vivo; conditions: bladder homogenate on day 7 after administration; TA dose 0.8 mg/animal into the bladder; hydrochloric acid-pretreated rat; read-out: Concentration of API (TA)
Experimental: In both Example and Comparative Example, the dose of TA was set to 0.8 mg/animal.
The pretreatment was performed in the same manner as in the evaluation 1.
One day after the pretreatment, 0.2 mL of each test substance was transurethrally administered into the bladder using a catheter (PE50) under isoflurane inhalation anesthesia and allowed to stay there for 30 minutes.
Seven days after administering the test substance, the animal was laparotomized under isoflurane inhalation anesthesia and exsanguinated and euthanized by cutting the abdominal aorta, and then, the bladder was collected. The bladder was homogenized in a mixed solution of methanol/buffer solution (10 mmol/L ammonium formate buffer solution (pH 6.0):methanol=3:2 (v/v)), and a measurement sample was prepared so that the tissue concentration was 0.05 g/mL.
Subsequently, the amount of TA in the measurement sample was quantitatively determined by an LC/MS/MS analysis under the following conditions using triamcinolone-6-d1 acetonide-d6 as an internal standard substance.

| Molecule | Release ratio of API ([1]; elapsed time 0 days) | Release ratio of API ([1]; elapsed time 1 day) | Release ratio of API ([1]; elapsed time 2 days) | Release ratio of API ([1]; elapsed time 3 days) | Release ratio of API ([1]; elapsed time 4 days) | Release ratio of API ([1]; elapsed time 5 days) | Release ratio of API ([1]; elapsed time 6 days) | Release ratio of API ([1]; elapsed time 7 days) | Release of API (result in words) ([1]; 1 week) | Release rate [1] | concentration at 7 days [2] |
| --- | --- | --- | --- | --- | --- | --- | --- | --- | --- | --- | --- |
| 3-Aminopropyl Cinnamate-Introduced HA [HA-CIN-conjugate, reference compound] | 0.00% | 0.00% | 0.00% | 0.00% | 0.00% | 0.00% | 0.00% | 0.00% | release of cinnamic acid was not observed | 0.00%/day | – |
| CC1(C)O[C@@H]2C[C@H]3[C@@H]4CCC5=CC(=O)C=C[C@]5(C)[C@@]4(F)[C@@H](O)C[C@]3(C)[C@]2(C(=O)CO)O1 [TA, triamcinolone acetonide] | – | – | – | – | – | – | – | – | – | – | 4.09 ng/g |
| 2-Aminoethyl-Diclofenac-Introduced CS [CS-DIC-conjugate] | 0.00% | 0.95% | 2.06% | 3.13% | 4.11% | 5.40% | 6.55% | 7.62% | – | 1.10%/day | – |
| 2-Aminoethyl-Dehydrocholate-Introduced CS [CS-DEH-conjugate] | 0.45% | 0.53% | 0.52% | 0.66% | 0.65% | 0.78% | 1.29% | 1.42% | – | 0.14%/day | – |
| β-alanyl-hydroxyzine-introduced CS [CS-HYD-conjugate] | 0.00% | 0.65% | 1.48% | 2.38% | 3.35% | 4.30% | 5.24% | 6.05% | – | 0.89%/day | – |
| 2-Aminoethyl-Probenecid-Introduced CS [CS-PRO-conjugate] | 0.31% | 0.83% | 1.43% | 2.13% | 2.91% | 3.63% | 4.56% | 5.29% | – | 0.72%/day | – |
